In US20150225704A1 (UNIVERSITY OF BRITISH COLUMBIA, published 2015):
Where a chain is given by its changes, count along the chain named.

T1: FLAG-MKK7 wt (UniProt O14733 1-419, limits assumed)
T1 construct: Bought from Addgene; also called MKK7 wildtype; not shown: FLAG tag
T1 sequence (looked up): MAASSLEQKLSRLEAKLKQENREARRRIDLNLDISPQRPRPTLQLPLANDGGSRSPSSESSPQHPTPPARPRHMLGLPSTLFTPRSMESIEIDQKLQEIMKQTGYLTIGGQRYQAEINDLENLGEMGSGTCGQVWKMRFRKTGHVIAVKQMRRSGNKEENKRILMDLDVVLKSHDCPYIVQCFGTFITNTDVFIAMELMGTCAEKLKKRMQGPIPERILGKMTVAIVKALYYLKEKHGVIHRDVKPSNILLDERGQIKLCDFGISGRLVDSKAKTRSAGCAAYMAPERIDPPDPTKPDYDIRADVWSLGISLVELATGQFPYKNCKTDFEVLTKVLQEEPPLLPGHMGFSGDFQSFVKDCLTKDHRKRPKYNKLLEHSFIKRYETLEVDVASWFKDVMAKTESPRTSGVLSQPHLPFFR

B1: endogenous JNK1 of rat cortical neuronal cultures (enzyme, UniProt P49185 1-411, looked up)
chain: MSRSKRDNNFYSVEIADSTFTVLKRYQNLKPIGSGAQGIVCAAYDAILERNVAIKKLSRPFQNQTHAKRAYRELVLMKCVNHKNIIGLLNVFTPQKSLEEFQDVYIVMELMDANLCQVIQMELDHERMSYLLYQMLCGIKHLHSAGIIHRDLKPSNIVVKSDCTLKILDFGLARTAGTSFMMTPYVVTRYYRAPEVILGMGYKENVDLWSVGCIMGEMVCLKILFPGRDYIDQWNKVIEQLGTPCPEFMKKLQPTVRTYVENRPKYAGYSFEKLFPDVLFPADSEHNKLKASQARDLLSKMLVIDASKRISVDEALQHPYINVWYDPSEAEAPPPKIPDKQLDEREHTIEEWKELIYKEVMDLEERTKNGVIRGQPSPLGAAVINGSQHPVSSPSVNDMSSMSTDPTLASD
B2: FLAG-MKK6 (enzyme, UniProt P52564 1-334, looked up)
chain: MSQSKGKKRNPGLKIPKEAFEQPQTSSTPPRDLDSKACISIGNQNFEVKADDLEPIMELGRGAYGVVEKMRHVPSGQIMAVKRIRATVNSQEQKRLLMDLDISMRTVDCPFTVTFYGALFREGDVWICMELMDTSLDKFYKQVIDKGQTIPEDILGKIAVSIVKALEHLHSKLSVIHRDVKPSNVLINALGQVKMCDFGISGYLVDSVAKTIDAGCKPYMAPERINPELNQKGYSVKSDIWSLGITMIELAILRFPYDSWGTPFQQLKQVVEEPSPQLPADKFSAEFVDFTSQCLKKNSKERPTYPELMQHPFFTLHESKGTDVASFVKLILGD
notes: Bought from Addgene; not shown: FLAG tag
B3: endogenous JNK3 of rat cortical neuronal cultures and rat brain (enzyme, UniProt P49187 1-464, looked up)
chain: MSLHFLYYCSEPTLDVKIAFCQGFDKHVDVSSVVKHYNMSKSKVDNQFYSVEVGDSTFTVLKRYQNLKPIGSGAQGIVCAAYDAVLDRNVAIKKLSRPFQNQTHAKRAYRELVLMKCVNHKNIISLLNVFTPQKTLEEFQDVYLVMELMDANLCQVIQMELDHERMSYLLYQMLCGIKHLHSAGIIHRDLKPSNIVVKSDCTLKILDFGLARTAGTSFMMTPYVVTRYYRAPEVILGMGYKENVDIWSVGCIMGEMVRHKILFPGRDYIDQWNKVIEQLGTPCPEFMKKLQPTVRNYVENRPKYAGLTFPKLFPDSLFPADSEHNKLKASQARDLLSKMLVIDPAKRISVDDALQHPYINVWYDPAEVEAPPPQIYDKQLDEREHTIEEWKELIYKEVMNSEEKTKNGVVKGQPSPSGAAVNSSESLPPSSSVNDISSMSTDQTLASDTDSSLEASAGPLGCCR
B4: GFP-JNK3 (c-jun N-terminal kinase 3) expressed in HEK293 cells (enzyme, UniProt P53779 1-464, looked up)
chain: B3 chain with H27Q, S32Y, V33I, V34A
notes: not shown: GFP tag and linker of the gifted construct (Song et al. 2006)
B5: zD20 (palmitoyl acyl transferase) expressed in HEK293 cells (enzyme, UniProt Q5W0Z9 1-365, looked up)
chain: MAPWTLWRCCQRVVGWVPVLFITFVVVWSYYAYVVELCVFTIFGNEENGKTVVYLVAFHLFFVMFVWSYWMTIFTSPASPSKEFYLSNSEKERYEKEFSQERQQEILRRAARALPIYTTSASKTIRYCEKCQLIKPDRAHHCSACDSCILKMDHHCPWVNNCVGFSNYKFFLLFLLYSLLYCLFVAATVLEYFIKFWTNELTDTRAKFHVLFLFFVSAMFFISVLSLFSYHCWLVGKNRTTIESFRAPTFSYGPDGNGFSLGCSKNWRQVFGDEKKYWLLPIFSSLGDGCSFPTRLVGMDPEQASVTNQNEYARSSGSNQPFPIKPLSESKNRLLDSESQWLENGAEEGIVKSGTNNHVTVAIEN
notes: Immunoprecipitated like myc-zD17
B6: zD15 (palmitoyl acyl transferase) expressed in HEK293 cells (enzyme, UniProt Q96MV8 1-337, looked up)
chain: MRRGWKMALSGGLRCCRRVLSWVPVLVIVLVVLWSYYAYVFELCLVTVLSPAEKVIYLILYHAIFVFFTWTYWKSIFTLPQQPNQKFHLSYTDKERYENEERPEVQKQMLVDMAKKLPVYTRTGSGAVRFCDRCHLIKPDRCHHCSVCAMCVLKMDHHCPWVNNCIGFSNYKFFLQFLAYSVLYCLYIATTVFSYFIKYWRGELPSVRSKFHVLFLLFVACMFFVSLVILFGYHCWLVSRNKTTLEAFCTPVFTSGPEKNGFNLGFIKNIQQVFGDKKKFWLIPIGSSPGDGHSFPMRSMNESQNPLLANEETWEDNEDDNQDYPEGSSSLAVETET
notes: as for B5

Columns and labels:
[1] = biological target: T2, endogenous zD17 of rat cortical neuronal cultures and rat brain (rat, UniProt E9PTT0 1-622); assay: co-immunoprecipitation, neuronal cultures treated with glutamate
T2 construct: Co-immunoprecipitated from lysates of Wistar rat cortical cultures or Sprague-Dawley rat brain
T2 sequence (E9PTT0 whole entry): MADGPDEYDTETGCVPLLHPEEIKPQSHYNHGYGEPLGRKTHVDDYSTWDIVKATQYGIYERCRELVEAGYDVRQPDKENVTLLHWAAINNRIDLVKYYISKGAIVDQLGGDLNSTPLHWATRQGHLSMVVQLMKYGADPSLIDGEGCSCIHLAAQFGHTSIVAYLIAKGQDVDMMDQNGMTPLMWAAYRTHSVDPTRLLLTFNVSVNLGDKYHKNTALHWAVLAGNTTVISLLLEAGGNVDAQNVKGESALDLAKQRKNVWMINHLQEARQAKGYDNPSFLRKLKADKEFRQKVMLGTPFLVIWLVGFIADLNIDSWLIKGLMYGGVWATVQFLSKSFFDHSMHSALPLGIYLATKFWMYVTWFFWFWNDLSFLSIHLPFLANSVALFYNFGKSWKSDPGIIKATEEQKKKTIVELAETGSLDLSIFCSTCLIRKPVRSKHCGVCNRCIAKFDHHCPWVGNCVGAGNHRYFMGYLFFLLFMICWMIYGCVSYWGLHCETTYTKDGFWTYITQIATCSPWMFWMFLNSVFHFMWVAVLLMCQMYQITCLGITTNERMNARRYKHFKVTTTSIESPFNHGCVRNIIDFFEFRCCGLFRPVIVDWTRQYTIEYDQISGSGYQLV

[2] = biological target: T3, myc-tagged full-length palmitoyl acyl transferase zinc-finger DHHC type containing 17 (zD17) (UniProt Q8IUH5 1-632); assay: co-immunoprecipitation, HEK293 cells
T3 construct: range 1-632; Expressed in HEK293 cells (myc-zD17) or purified from E. coli as GST-myc-zD17 and freed of GST with thrombin; also called myc-zD17; zD17 wildtype
T3 sequence (Q8IUH5 whole entry): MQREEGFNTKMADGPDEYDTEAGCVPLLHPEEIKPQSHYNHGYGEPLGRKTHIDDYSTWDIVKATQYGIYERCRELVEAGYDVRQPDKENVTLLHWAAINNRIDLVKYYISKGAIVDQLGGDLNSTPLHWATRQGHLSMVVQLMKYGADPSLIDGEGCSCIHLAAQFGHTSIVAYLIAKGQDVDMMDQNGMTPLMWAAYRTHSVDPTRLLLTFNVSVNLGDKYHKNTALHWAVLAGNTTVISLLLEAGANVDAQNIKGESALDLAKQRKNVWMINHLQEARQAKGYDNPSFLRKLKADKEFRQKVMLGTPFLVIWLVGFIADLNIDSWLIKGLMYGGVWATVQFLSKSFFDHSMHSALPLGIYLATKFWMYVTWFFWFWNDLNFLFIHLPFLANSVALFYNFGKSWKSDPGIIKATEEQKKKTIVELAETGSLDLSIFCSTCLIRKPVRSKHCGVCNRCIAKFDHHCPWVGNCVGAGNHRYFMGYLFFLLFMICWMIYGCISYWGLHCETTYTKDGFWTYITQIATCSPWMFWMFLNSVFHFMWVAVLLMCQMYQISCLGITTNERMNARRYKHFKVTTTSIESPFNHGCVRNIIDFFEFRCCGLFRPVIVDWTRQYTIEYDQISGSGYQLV
Procedure: (§1) For co-immunoprecipitation, cultured cells were washed with ice-cold PBS followed by incubation with 0.5 ml Gentle Lysis Buffer (GLB) containing 25 mM Tris-HCl (pH 7.4), 2 mM EDTA, 1 mM EGTA, 10 mM NaCl, 0.5% Triton X-100 and 10% Glycerol supplemented with the Complete Protease Inhibitor Tablets (Roche Applied Science™, Indianapolis, Ind., USA) and 1 mM PMSF. Total protein concentration was determined with the BioRad™ Protein Assay kit. Lysates were first precleaned by incubating with Protein A-Sepharose beads (Roche Applied Science™) for 1 h at 4° C., followed by incubation with indicated antibodies (>16 h at 4° C.) and protein A Sepharose bead (2 h at 4° C.). Lysates of rat brain tissues were precleaned with IgG and protein A-beads. […] The relative intensities of the bands on immunoblots were analyzed and quantified using Image J™ (NIH).

[3] = biological target: T2, endogenous zD17 of rat cortical …; assay: co-immunoprecipitation, neuronal cultures treated with NMDA
[4] = biological target: T2, endogenous zD17 of rat cortical …; assay: co-immunoprecipitation, neuronal cultures treated with TNF-α (50 ng/ml, 6 h)
Procedure: as §1

[5] = biological target: T2, endogenous zD17 of rat cortical …; assay: co-immunoprecipitation, neuronal cultures treated with IL-1β (10 ng/ml, 16 h)
Procedure: as §1

FLAG-MKK7 wt = biological target: T1, FLAG-MKK7 wt; assay: co-immunoprecipitation, with against without zD17
Procedure: as §1

[6] = biological target: B4; assay: co-immunoprecipitation, HEK293 cells
Procedure: as §1

Binder: B1
fold increase of zD17 interaction compared with control [1]: 1.4 fold

Binder: B2
binding result [2]: no binding

Binder: B3
fold increase of zD17 interaction compared with control [3]: 2.5 fold | fold increase of zD17 interaction compared with control [1]: 2.6 fold | fold increase of zD17-JNK3 interaction against control [4]: 1.53 fold | fold increase of zD17-JNK3 interaction against control [5]: 1.88 fold

Binder: B4
fold enhancement of the JNK3-MKK7 association in the presence of zD17 (FLAG-MKK7 wt): 2.41 fold

Binder: B5
binding result [6]: no binding

Binder: B6
binding result [6]: no binding
